Reference: paper PMC3681689

Key:
[1] = biological target: monothiol glutaredoxin 5 (Grx5) (S. cerevisiae) (UniProt Q02784); test: co-IP
[2] = biological target: N-terminally His-tagged S. cerevisiae Grx5 (recombinant) (S. cerevisiae) (UniProt Q02784); test: MST

amount bound to anti-Grx5 immunobeads relative to Ssc1 [1] [fold] | Ka [2] [M⁻¹] | Substance
> 4 |  | Ssq1-glutathione S-transferase (GST) fusion protein (natural protein)
 | 440000 | recombinant His-tagged S. cerevisiae Ssq1 (natural protein)
